This note sets out measurements from article PMC8540780, “Biochemical and Molecular Characterization of the Rice Chalcone Isomerase Family” (Plants, 2021).

Substrate in series [1]: O=C(/C=C/c1ccc(O)cc1)c1ccc(O)cc1O
Put plainly: purified protein. To be noted: 50 mM Tris pH 7.5, 500 µg enzyme (b24 prints 440 µg/mL for the activity test), substrate 1–50 µM.

Substrate in series [2]: O=C(/C=C/c1ccc(O)cc1)c1c(O)cc(O)cc1O
Put plainly: purified protein. The format is biochemical, Oryza sativa. To be noted: 50 mM Tris pH 7.5, 0.1 µg enzyme per mL, substrate 1–50 µM.

B1: OsCHI3 (Oryza sativa Japonica Group) (protein)
chain: MAAVSEVEVDGVVFPPVARPPGSGHAHFLAGAGVRGVEIAGNFIKFTAIGVYLEEGAAVPALAKKWAGKSADELAADAAFFRDVVTGDFEKFTRVTMILPLTGEQYSDKVTENCVAAWKAAGVYTDAEGAAADKFKEAFKPHSFPPGASILFTHSPPGVLTVAFSKDSSVPEGAVAAAAIENRALCEAVLDSIIGEHGVSPAAKRSIAARVSQLLKAESTGDVAAAEPAPVSA
notes: 233 aa; 28 kDa on SDS-PAGE
Broadly, the Km is the substrate concentration at which the rate is half of its maximum. By Vmax is commonly meant the rate approached at saturating substrate. Broadly, the kcat is the number of substrate molecules converted per active site and unit of time at saturation. The term kcat/Km denotes the second-order rate constant that governs catalysis at low substrate concentration. Regarding B1, in “purified protein [1]”, the Km amounted to 50.95 ± 4.83 µM, the Vmax came to 0.000212 µmol/min/mg, the kcat amounted to 9.21e-05 s⁻¹ and the kcat/Km was determined as 1.81 M⁻¹ s⁻¹. Besides, in “purified protein [2]”, the Michaelis constant (Km) is 11.60 ± 0.78 µM, the Vmax came out at 160 µmol/min/mg, the turnover number (kcat) turned out to be 69.3 s⁻¹ and the kcat/Km turned out to be 5.98e+06 M⁻¹ s⁻¹.
